Experimental data published in US20030022820A1, “IN VIVO ACTIVATION OF TUMOR-SPECIFIC CYTOTOXIC T CELLS” (priority 1995, published 2003).

Target: A2.1/K^b on EA2 target cells (UniProt P01901+P04439, D140Y/D185E/D98H/E176V/G131W/I119V/I121R/I166T/N151K/N90K/Q86G/Q94H/R138H/R169H)
Type: binding, chimeric human-mouse

Row | Sequence | inhibition of binding of the influenza A-derived peptide to A2.1/K^b (FIG. 5), in words | binding to A2.1/K^b (percent specific lysis of EA2/K^b targets, FIG. 1), in words
1 | ILLVVVLGV [Peptide H9] | highest efficiency | –
2 | ILKEPVHGV [HIV-1 RT: 476-484, reference compound] | – | efficiently bound to A2.1/K^b
